± gives the uncertainty stated by the source.

B1: Kinesin-like protein KIF16B, residues 1213 to 1273; numbered along this chain, Q96L93 (parent)
chain: ETWTVFRRYSRFREMHKTLKLKYAELAALEFPPKKLFGNKDERVIAERRSHLEKYLRDFFS

The variants in this series derive from B1. In words: abundance fitness (aPCA) (normalised: wild type 0, dead -1); higher = more abundant; growth selection in yeast, the domain comes from the species named. As to conditions: Homo sapiens.
With ETQTVFRRYSRFREMHKTLKLKYAELAALEFPPKKLFGNKDERVIAERRSHLEKYLRDFFS [W3Q], the abundance fitness is -0.771 ± 0.24.
As for ETVTVFRRYSRFREMHKTLKLKYAELAALEFPPKKLFGNKDERVIAERRSHLEKYLRDFFS [W3V], the abundance fitness was -0.521 ± 0.19.
In the case of ETFTVFRRYSRFREMHKTLKLKYAELAALEFPPKKLFGNKDERVIAERRSHLEKYLRDFFS [W3F] it was 0.086 ± 0.15.
Turning to ETTTVFRRYSRFREMHKTLKLKYAELAALEFPPKKLFGNKDERVIAERRSHLEKYLRDFFS [W3T], the abundance fitness was -0.432 ± 0.24.
For the variant ETGTVFRRYSRFREMHKTLKLKYAELAALEFPPKKLFGNKDERVIAERRSHLEKYLRDFFS [W3G], the abundance fitness is 0.039 ± 0.072.
Consider ETYTVFRRYSRFREMHKTLKLKYAELAALEFPPKKLFGNKDERVIAERRSHLEKYLRDFFS [W3Y], for which the abundance fitness is -0.424 ± 0.22.
Turning to ETMTVFRRYSRFREMHKTLKLKYAELAALEFPPKKLFGNKDERVIAERRSHLEKYLRDFFS [W3M], the abundance fitness was -0.274 ± 0.094.
For the variant ETRTVFRRYSRFREMHKTLKLKYAELAALEFPPKKLFGNKDERVIAERRSHLEKYLRDFFS [W3R], the abundance fitness is -0.232 ± 0.06.
In the case of ETLTVFRRYSRFREMHKTLKLKYAELAALEFPPKKLFGNKDERVIAERRSHLEKYLRDFFS [W3L] it was -0.45 ± 0.087.
As for ETITVFRRYSRFREMHKTLKLKYAELAALEFPPKKLFGNKDERVIAERRSHLEKYLRDFFS [W3I], the abundance fitness was -0.655 ± 0.18.
In the case of ETSTVFRRYSRFREMHKTLKLKYAELAALEFPPKKLFGNKDERVIAERRSHLEKYLRDFFS [W3S] it was -0.152 ± 0.13; in that of ETKTVFRRYSRFREMHKTLKLKYAELAALEFPPKKLFGNKDERVIAERRSHLEKYLRDFFS [W3K], -0.051 ± 0.092.
In the case of ETETVFRRYSRFREMHKTLKLKYAELAALEFPPKKLFGNKDERVIAERRSHLEKYLRDFFS [W3E] it was -0.088 ± 0.13.
In the case of ETNTVFRRYSRFREMHKTLKLKYAELAALEFPPKKLFGNKDERVIAERRSHLEKYLRDFFS [W3N], the abundance fitness is -0.024 ± 0.13.
In the case of ETWTVHRRYSRFREMHKTLKLKYAELAALEFPPKKLFGNKDERVIAERRSHLEKYLRDFFS [F6H], the abundance fitness was -0.541 ± 0.29.
In the case of ETWTVYRRYSRFREMHKTLKLKYAELAALEFPPKKLFGNKDERVIAERRSHLEKYLRDFFS [F6Y] it was -0.69 ± 0.14; in that of ETWTVRRRYSRFREMHKTLKLKYAELAALEFPPKKLFGNKDERVIAERRSHLEKYLRDFFS [F6R], -0.601 ± 0.072.
For ETWTVARRYSRFREMHKTLKLKYAELAALEFPPKKLFGNKDERVIAERRSHLEKYLRDFFS [F6A], the abundance fitness is -0.241 ± 0.088.
Take ETWTVIRRYSRFREMHKTLKLKYAELAALEFPPKKLFGNKDERVIAERRSHLEKYLRDFFS [F6I]: the abundance fitness was -0.044 ± 0.095.
Regarding ETWTVVRRYSRFREMHKTLKLKYAELAALEFPPKKLFGNKDERVIAERRSHLEKYLRDFFS [F6V], the abundance fitness is -0.107 ± 0.084.
For the variant ETWTVDRRYSRFREMHKTLKLKYAELAALEFPPKKLFGNKDERVIAERRSHLEKYLRDFFS [F6D], the abundance fitness is -0.474 ± 0.33.
In the case of ETWTVTRRYSRFREMHKTLKLKYAELAALEFPPKKLFGNKDERVIAERRSHLEKYLRDFFS [F6T] it was -0.352 ± 0.096.
Regarding ETWTVERRYSRFREMHKTLKLKYAELAALEFPPKKLFGNKDERVIAERRSHLEKYLRDFFS [F6E], the abundance fitness is -0.161 ± 0.12.
On to ETWTVGRRYSRFREMHKTLKLKYAELAALEFPPKKLFGNKDERVIAERRSHLEKYLRDFFS [F6G], for which the abundance fitness was -0.168 ± 0.061.
In the case of ETWTVSRRYSRFREMHKTLKLKYAELAALEFPPKKLFGNKDERVIAERRSHLEKYLRDFFS [F6S], the abundance fitness is -0.215 ± 0.064.
With ETWTVCRRYSRFREMHKTLKLKYAELAALEFPPKKLFGNKDERVIAERRSHLEKYLRDFFS [F6C], the abundance fitness was -0.842 ± 0.23.
As for ETWTVMRRYSRFREMHKTLKLKYAELAALEFPPKKLFGNKDERVIAERRSHLEKYLRDFFS [F6M], the abundance fitness was -0.443 ± 0.13.
In the case of ETWTVPRRYSRFREMHKTLKLKYAELAALEFPPKKLFGNKDERVIAERRSHLEKYLRDFFS [F6P] it was -0.227 ± 0.061; in that of ETWTVLRRYSRFREMHKTLKLKYAELAALEFPPKKLFGNKDERVIAERRSHLEKYLRDFFS [F6L], -0.242 ± 0.073; in that of ETWTVNRRYSRFREMHKTLKLKYAELAALEFPPKKLFGNKDERVIAERRSHLEKYLRDFFS [F6N], -0.451 ± 0.12.
In the case of ETWTVKRRYSRFREMHKTLKLKYAELAALEFPPKKLFGNKDERVIAERRSHLEKYLRDFFS [F6K] it was -0.442 ± 0.26; in that of ETWTVQRRYSRFREMHKTLKLKYAELAALEFPPKKLFGNKDERVIAERRSHLEKYLRDFFS [F6Q], -0.402 ± 0.18; in that of ETWTPFRRYSRFREMHKTLKLKYAELAALEFPPKKLFGNKDERVIAERRSHLEKYLRDFFS [V5P], -0.442 ± 0.22.
Turning to ETWTGFRRYSRFREMHKTLKLKYAELAALEFPPKKLFGNKDERVIAERRSHLEKYLRDFFS [V5G], the abundance fitness came to 0.22 ± 0.06.
As to ETWTSFRRYSRFREMHKTLKLKYAELAALEFPPKKLFGNKDERVIAERRSHLEKYLRDFFS [V5S], the abundance fitness is -0.023 ± 0.086.
As for ETWTMFRRYSRFREMHKTLKLKYAELAALEFPPKKLFGNKDERVIAERRSHLEKYLRDFFS [V5M], the abundance fitness stood at 0.125 ± 0.055.
With ETWTIFRRYSRFREMHKTLKLKYAELAALEFPPKKLFGNKDERVIAERRSHLEKYLRDFFS [V5I], the abundance fitness is -0.044 ± 0.08.
As to ETWTLFRRYSRFREMHKTLKLKYAELAALEFPPKKLFGNKDERVIAERRSHLEKYLRDFFS [V5L], the abundance fitness was determined as 0.035 ± 0.1.
For ETWTKFRRYSRFREMHKTLKLKYAELAALEFPPKKLFGNKDERVIAERRSHLEKYLRDFFS [V5K], the abundance fitness turned out to be 0.318 ± 0.25.
Regarding ETWTTFRRYSRFREMHKTLKLKYAELAALEFPPKKLFGNKDERVIAERRSHLEKYLRDFFS [V5T], the abundance fitness was determined as 0.094 ± 0.078.
In the case of ETWTEFRRYSRFREMHKTLKLKYAELAALEFPPKKLFGNKDERVIAERRSHLEKYLRDFFS [V5E] it was -0.486 ± 0.12; in that of ETWTWFRRYSRFREMHKTLKLKYAELAALEFPPKKLFGNKDERVIAERRSHLEKYLRDFFS [V5W], 0.086 ± 0.13.
With ETWTRFRRYSRFREMHKTLKLKYAELAALEFPPKKLFGNKDERVIAERRSHLEKYLRDFFS [V5R], the abundance fitness was -0.041 ± 0.08.

The values above are taken from the Human Domainome abundance scans (Beltran et al. 2025).
